# Laboratory results as given in patent US20230293644A1, “ANTI-INFLAMMATORY PEPTIDES AND COMPOSITION COMPRISING THE SAME” (Gemvax & KAEL Co., Ltd., priority 2012, published 2023).
# Legend:
# [1] = system: TNF-α; test: TNF-α ELISA, LPS-stimulated PBMC-derived monocytes (Example 1); type: cell-based, human; details: LPS 10 ng/ml 2 hrs, starved 1 hr, 4 uM for 2 hrs; cell culture medium
# Method: PBMC (peripheral blood mononuclear cell) was separated from the blood samples (50ml) collected from healthy subjects using Ficoll-PaqueTM PLUS (GE Healthcare Life Sciences, Piscataway, NJ, USA). PBMCs were then enriched in complete RPMI 1640 medium containing 20% of human serum, followed by transferring to 100 mm polystyrene cell culture plate coated with human serum for 30 mins. […]
# To see the effect of PEP-1 on TNF-α level in terms of protein expression level, ELISA (enzyme linked immunosorbent assay) was performed. […] After culturing, cell soup was collected, and the amount of TNF-α was measured using ELISA kit (R&D, Minneapolis, MN, USA) as follows:
# TNF measurement uses sandwich ELISA method. […] Again, plate was washed, and avidin/biotin was added for measuring the absorbance. TNF-α level of each sample was quantified using the standard graph calculated from the absorbance of standard solution.
# PBMC-derived monocytes were stimulated with endotoxin LPS (10 ng/ml) for 2 hrs, starved for 1 hr using OPTI-MEM, and then 4 uM of FITC, FITC-TAT, PEP 1-FITC and FITC-PEP 1 were treated for 2 hrs. After incubation, TNF-α level was measured with cell culture medium using ELISA.
# [2] = system: HSP 70; test: 2D-electrophoresis protein expression in neural stem cells: HSP 70; type: cell-based, rat; details: β-amyloid alone; negative control 1.0
# Method: (§1) Protein expression level of PEP-1 treated group and untreated group was analyzed by 2D-electrophoresis technique and antibody microarray technique. Prepared 200ug by extracting proteome from the neural stem cells cultured in Experiment 1-1 of example 3. In addition, the group in which PEP-1 was not treated was used as the comparison group in the same condition.
# (§2) 2D-electrophoresis was performed using 12% acrylamide gels. First gel electrophoresis was performed at Pl 4~10N, using a gel size of 8.5×7cm. After electrophoresis, it was dyed with Colloidal Coomassie Blue, and then compared expression by using PDQuest software to analyze each spot.
# (§3) Difference in the expression levels of more than 1.5 times was identified using MALDI-TOF MS (Matrix Desoprtion/lionization Time of Flight Mass Spectromestry). Among these, proteins correlated with inflammation-related signaling, such as i-NOS and HMGB-1 were identified (Refer to Table 6). The changes in protein expression levels either increased or decreased by 1.5 times by amyloid-β protein, but it was confirmed that expression level was regulated close to that of negative control when PEP-1 was added (Refer to FIG. 57).
# (§4) The Table 6 below is an analysis of expression levels of proteins associated with inflammation by 2D electrophoresis technique. […]
# [3] = system: MAP Kinase; test: 2D-electrophoresis protein expression in neural stem cells: MAP Kinase; type: cell-based, rat; details: β-amyloid alone; negative control 1.0
# Method: as §1, §2, §3, §4
# [4] = system: HHGB1; test: 2D-electrophoresis protein expression in neural stem cells: HHGB1; type: cell-based, rat; details: β-amyloid alone; negative control 1.0
# Method: as §1, §2, §3, §4
# [5] = system: HSP 90; test: 2D-electrophoresis protein expression in neural stem cells: HSP 90; type: cell-based, rat; details: β-amyloid alone; negative control 1.0
# Method: as §1, §2, §3, §4
# [6] = system: i-N0S; test: 2D-electrophoresis protein expression in neural stem cells: i-N0S; type: cell-based, rat; details: β-amyloid alone; negative control 1.0
# Method: as §1, §2, §3, §4
# [7] = system: GAUD 153; test: 2D-electrophoresis protein expression in neural stem cells: GAUD 153; type: cell-based, rat; details: β-amyloid alone; negative control 1.0
# Method: as §1, §2, §3, §4
# [8] = system: e-N0S; test: 2D-electrophoresis protein expression in neural stem cells: e-N0S; type: cell-based, rat; details: β-amyloid alone; negative control 1.0
# Method: as §1, §2, §3, §4
# [9] = system: neural stem cells; test: Amyloid-β toxicity assessment on neural stem cells; type: cell-based, rat; details: 20 µM amyloid-β protein, 48 hours
# Method: After removing the cortex from the head of an embryonic rat that had been pregnant for 13 days, it was cultured for a week with Basic Fibroblast Growth Factor (bFGF) to obtain the neural stem cells. To analyze the effects of the amyloid-β protein on the neural stem cells, the pre-oligomerized amyloid-β protein of concentrations 0 to 40 µM was treated on neural stem cells for 48 hours, then CCK-8 assay, BrdU, and TUNEL assay were used for cytotoxicity assessment (refer from BA Yankner et al, 1990 and KN Dahlgren et al, 2002).
# [10] = system: Pyk2; test: 2D-electrophoresis protein expression in neural stem cells: Pyk2; type: cell-based, rat; details: β-amyloid alone; negative control 1.0
# Method: as §1, §2, §3, §4
Substance,TNF-α level [1] [ng/mL],"HSP 70 expression, 20ug β -amyloid treated group (fold) [2] [fold]","MAP Kinase expression, 20ug β -amyloid treated group (fold) [3] [fold]","HHGB1 expression, 20ug β -amyloid treated group (fold) [4] [fold]","HSP 90 expression, 20ug β -amyloid treated group (fold) [5] [fold]","i-N0S expression, 20ug β -amyloid treated group (fold) [6] [fold]","GAUD 153 expression, 20ug β -amyloid treated group (fold) [7] [fold]","e-N0S expression, 20ug β -amyloid treated group (fold) [8] [fold]",cell survival [9] [%],"Pyk2 expression, 20ug β -amyloid treated group (fold) [10] [fold]"
Fluorescein Isothiocyanate [FITC],6.2,,,,,,,,,
amyloid-β protein,,-2.3,2.2,-1.5,-1.8,1.9,1.6,1.9,60,2.0
